# Assay: yeast display, Sf9 membrane polyspecificity reagent, FACS + sequencing; frameworks hold sequencing errors
# How it was run: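 Synthetic nanobody libraries on Saccharomyces cerevisiae BJ5465 were galactose-induced for 36–48 hours, stained 1 hour at 4 °C with 10% biotinylated, detergent-solubilized Sf9 membrane reagent and enriched on streptavidin microbeads. FACS then separated cells into low and high (top ~1%) gates by anti-HA (expression) and streptavidin (reagent binding) fluorescence. Genes were colony-PCR amplified, MiSeq 2 × 250 sequenced and CDR-length filtered. A clone's polyreactivity label is that of its gate of origin.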
row,Sequence,polyreactivity (PSR sort gate)
1,QVQLVESGGGLVQAGGSLRLSCAATGSIFNFYAMGWYRQAPGKERELVAAIDQNGGSTYYADSVKGRFTISRDNAKNTVYLQMNSLKPVDTAVYYCAKDHQSGRRTYTYRYDYWGQGTQVTVSS,low polyreactivity
2,QVQLVESGGGLVQAGGSLRLSCAATGSTFHNYAMGWYRQAPGKERELGAGISVRGGGTYYADSVKGRFTISRDNAKNTVYLQMNSLKPEDTAVYYFAKRSRYYYRYDYWGQGTQVTVSS,high polyreactivity
3,QVQLVESGGGLVQAGGSLRLSCAATGSTFIGYAMGWYRQAPGKETELVAAISEIGGSTYYADSVKGRFTISRDNAKNTVYLKMNSLKPEDTAVDYCAATEVYLYFWYGYEYWGQGTQVTVSS,low polyreactivity
4,QVQLVESGGGLVQAGGSLRLSCAATGSTLVPNAMGWYRQAPGKERELVAAITRGTITHYADSVKGRFTISRDNAKNTVYVQMNSLKPEDTAVYYCNADVSLDDYDYWGQGTQVTVSS,low polyreactivity
5,QVQLVESGGGLVQAGGSLRLSCAATGYIGGNAMGWYRQAPWKERELVATLSRSGGSTYYADSVKGRFTISRDNAKNTVYLQMNSLKPEDSAVYYCAAVSYGNYHWGMYYWGQGTQVTVSS,low polyreactivity
6,QVQLVESGGGLVQAGGSLRLSCAATGYTFYIYAMGWYRQARGKERELVASITSDGRTNYADSVKGRFTISRDNAKNTVYLQMNSLKPEDTAVYYCATVGKVHDRLVAMDYWGQGTQVTGSS,low polyreactivity
7,QVQLVESGGGLVQAGGSLRLSCAATRRTFYSYAMGWYRQAPGKESELLASITSTGSTYYADSVKGRFTISRDNAKNTVYLQMNSLKPEDTAVYYCAARRQPRYSQRSTYYYWGQGTQVTVSS,high polyreactivity
8,QVQLVESGGGLVQAGGSLRLSCAATVLKFGKNPMGSYRQATGKERELVAVISWRGSSTYYADSVKGRFTISRVNAKNTVFLQMNSLKPEDTAVYYCTDVYVYVHYQPGYYWGQGTQVTVSS,low polyreactivity
9,QVQLVESGGGLVQAGGSLRLSCAAYAMGWYRQAPGKERELVAAMSSSGGSTYYADSVKGRFTISRDNAKTTVYLQMTSLKPEDTAVYYCARDPDTYFFPPTGYYTSGFDSWGQGTQVTVSS,low polyreactivity
10,QVQLVESGGGLVQAGGSLRLSCAAYGFIFKFYAMGWYRQAPGKERELVAAITSGGGRTYYADSVKGRFPISRDNAKNTVYLQMNSLKAQDSAGYYCAVDYLQYYYKKHYYGGQGTQVTVSS,high polyreactivity
11,QVQLVESGGGLVQAGGSLRLSCAAYGFTFIYYAMGRYRQAPGKERELVAAISRRGGSTYYADSVKGRFTISRDNAKNTVYLQMNSLKPEDTAVYYCAAYTLNTRYDYWGQGTQVTVSS,high polyreactivity
12,QVQLVESGGGLVQAGGSLRLSCAAYGFTFSRKAMGWYRPAPGKERELVAAISIRGGSTYYADSVKGRFTISRDNAKITVYLQMNSLKPEDTAVYYCAALYRPTDYDYWGQGTQVTVSS,high polyreactivity
13,QVQLVESGGGLVQAGGSLRLSCAAYGGIFSYNAKGWYSQAPGKEREFVASISSSGGRTYYADSVKGRFTISRDNAQNTVYLQMKSLKPEDTAVYYCAKRGQLRHYSWGQGTQVTVSS,low polyreactivity
14,QVQLVESGGGLVQAGGSLRLSCAAYGGTFYYYAMGWYRQAPGKEREFVAAITWTGGRTYYADSVKGRFTISRDNAKNTVYLQMNSLKPEDTAVYYCAASDRYGGRDYWGQGTQVTVSS,high polyreactivity
15,QVQLVESGGGLVQAGGSLRLSCAAYGITFKGNAMGWYRQAPGKERELVAAIRWRAGRTYYADSVKGRFTISRDNAKNTVYLQMNSLKPEDTAVYDCAATYSYLWPEYDYWGQGTQVTVSS,high polyreactivity
16,QVQLVESGGGLVQAGGSLRLSCAAYGRIFGPYASGWYIQAPGKERELVAAITLSGGGTYADSVKGRFTISRDNAKNTVYLQMNSLKPEDTAVYYCAADSYRLLNSDTGEFEYNYWGQGSQVTVSS,low polyreactivity
17,QVQLVESGGGLVQAGGSLRLSCAAYGRIFLPNSMGWYIQAPGKERELVAAITWSGGSTYYADSVKGRFTISRDNAKYTVFLQMTSLIPEDTAVYYGAGRGFSYRRRSQQFDYWGLGTQVTVSS,high polyreactivity
18,QVQLVESGGGLVQAGGSLRLSCAAYGRIFNEYAKGWYRQAPGKERELVAAITYSDDSTYYADSVKGRFTISRDNAKNTVYLQLNSLKPEDTAVYYCNADTPVWDGHAYPVDYWGQGTQVTVSS,low polyreactivity
19,QVQLVESGGGLVQAGGSLRLSCAAYGRIFRYYAMGWYRQAPGKERELVAGISWRGSSTYYADSVKGRFTLSRDNAKNTVYLQMNSLKPEDTAVYYCNRDQSNIPVTGVRFYYWGQGTQVTVSS,high polyreactivity
20,QVQLVESGGGLVQAGGSLRLSCAAYGRIFSRYAMGWYRQAPGKERELVAAISSSGTTTYYADSVNGRFTISRDTAKNTVYLQMNSLKPEDTAVYSCATSAVRHIYWGQGTQVTVSS,high polyreactivity
21,QVQLVESGGGLVQAGGSLRLSCAAYGRIFSSYAMGWYRQAPGKERELVAAISSSGGRTYYADSVKGRFTISRDNAKNTVYLQMNRLKPEDTAVYYFARVTTGGYEYWGQGSQVTVSS,high polyreactivity

row,Sequence,polyreactivity (PSR sort gate)
1,QVQLVESGGGLVQAGGSLRLSCAAYGRILSVYAMGWYRQAPGKERELVAAISSTGGTYYADSVKGRFTISRDNAKNTVYLQMNSLKPEDTADYYCAARYSTLTKYYWGQGTQVTVSS,low polyreactivity
2,QVQLVESGGGLVQAGGSLRLSCAAYGRTFEINAMGWYRQATGKERELVAAISWDDGSTYYADSVKGRFTISRDNAKNTVYLQMNSLKPEDTAVYYCAAESPLHYTHRRGYEYWGQGTQVTVSS,low polyreactivity
3,QVQLVESGGGLVQAGGSLRLSCAAYGRTFWSYAMGWYRQAPGKERELVADISLDDGTTYYADSVKGRFTISRDNAKNTVYLHMNSLKPEDTAVYYCAAERDQGDDGYGPDYGYWGQGTQVTVSS,high polyreactivity
4,QVQLVESGGGLVQAGGSLRLSCAAYGRTIPIYAMGWYRQAPGKEREFVAGINWSGGSTSYADSVKGRFTISRDNAKNTVYLQMNSLKPEDTAVYYCDADKYYRYNYWGQGTQVTVSS,high polyreactivity
5,QVQLVESGGGLVQAGGSLRLSCAAYGRTLRGYAMGWYRQAPGKERELVAALTWSGGSTYYADSVKGRFTISRDHAKNTVYLQMNSLKPEDTAVYYCNARSYPDLYDYWGQGTQVTVSS,low polyreactivity
6,QVQLVESGGGLVQAGGSLRLSCAAYGRTLYYNTMGWYRQAPGKERELVASIRWDGGRTYYADSVKGRFTISRDNAKNTVYLQLNSLKPEDTAVYYCAKDGGYYYGTYAYDGCFDYWGQGTQVTVSS,low polyreactivity
7,QVQLVESGGGLVQAGGSLRLSCAAYGSIFAYNAMGWYRQAPGKEREFVAVITRSDDSTYADSVTGRFTISRDNAKNTVYLQMNSLKPVDTAVYYCAAQPFVIDGGYRGDYWGQGTQVTVSS,low polyreactivity
8,QVQLVESGGGLVQAGGSLRLSCAAYGSIFGSNAIGCYIQAPGKERELVAAISSGSTYYADTVKGRFTISRDNAKNTVYLQMNSLKPEDNAVYYCNARSLLYEFDYWGQGTQVTVSS,low polyreactivity
9,QVQLVESGGGLVQAGGSLRLSCAAYGSIFRKYVMGWYRQAHGKERELVAVISSGTGTYYADSVKGRFTISRDNAKNTVYLQMNSLNPEDTAVYYCAARVGRYGYSQYYYWGHGTQVTVSS,high polyreactivity
10,QVQLVESGGGLVQAGGSLRLSCAAYGSIFRWYAMGWYRQAPGKERELVAAISTSGGNKYYADSVKGRFTISRDNAKNTVYLQMNSLKPEDTAVYYCNALWYRSLSYRYDYWGQGTQVTVSS,high polyreactivity
11,QVQLVESGGGLVQAGGSLRLSCAAYGSIFSENAMGWYRQAPGKEWELVADITDGGGSTYYADSVKGRFTISRDNAKNPVYLQMNSLKPDDTAVYYCNAQIFFFAPWYYEYDYWGQCTQVTVSS,low polyreactivity
12,QVQLVESGGGLVQAGGSLRLSCAAYGSIFVLNAMGWYRQAPGKERQLVAAITNVGSTYYADSVKGRFTISRDNAKNTVYLQMNSLKPEDTAVYYCNADPGEVLVGYDYWGQGTQVSVSS,low polyreactivity
13,QVQLVESGGGLVQAGGSLRLSCAAYGSILRSNAMGWYRQAPGKERELVAVISNDDSTYYADSVKGRFTISRDNAKNTVYLQMNSLKPEDTAVYYCNAVYYYFFRWNPIYDSWGQGTQVTVSS,low polyreactivity
14,QVQLVESGGGLVQAGGSLRLSCAAYGSNFTSNAMGWYRQAPGKERELVAVITIGGSTNYADSVKGRFTISRDNAKNTVYLQMNSLKPEDTAVYYCAADDDYSRILQGDQSDDYWGQGSQVTVSS,low polyreactivity
15,QVQLVESGGGLVQAGGSLRLSCAAYGSNYSTYTMGWYRTAAGKERQLVAAITRSGGSTYYADSVKGRFTISRDNAKKTDYLQMNSLKPEDTAVFYCAARGQAYSGDRMYYWGLGTQVTVSS,high polyreactivity
16,QVQLVESGGGLVQAGGSLRLSCAAYGSTFIAYAMGWYRQAPGKERELVAAITRGGSTNYADSVKGRFTISRDNAKNTVYLQMNRLKPEDTAVYYCAADRSWGYWGRSRYDYWGQGTQVTVSS,high polyreactivity
17,QVQLVESGGGLVQAGGSLRLSCAAYGSTFKRNAMGCYRQAPGKEREFVAAITWSGGSTYYADSVKGRFTISRDNAKNTVYLQMNSLKPEDTAVYYCNADRFSSRHSYDYWGQGTQVTVSS,low polyreactivity
18,QVQLVESGGGLVQAGGSLRLSCAAYGSTFPSYAMGSNRQAPGKERELVAAISWTGGTTYFADSVKGRFTISRDNAKNTVYLQMNSLKPEDTAVYYCNAKDGGGSQDQAQKRPIIRFDYWGQGSQVTVSS,high polyreactivity
19,QVQLVESGGGLVQAGGSLRLSCAAYGSTFQRYAMGWYRQAPGKERELVAAITLSGGNTYYADSVKGRFTISRDNAKNNVYLQMNSLKPEDTAVYYCAARRYRGYDYWGQGTQVTVSS,high polyreactivity
20,QVQLVESGGGLVQAGGSLRLSCAAYGSTFTSYAMGWYRQAPGKERELVAAISSSGTRTYYADSVKGRFTISRDNAKNTVYLQMNSLKPEDTAVYYCAKASPYSKLYYWGQGTQGTVSS,high polyreactivity
